Data reported in IntAct's records for PubMed 11283256.

B1: Serine/threonine-protein kinase MRCK alpha (Homo sapiens), Q5VT25 (parent)
chain: MSGEVRLRQLEQFILDGPAQTNGQCFSVETLLDILICLYDECNNSPLRREKNILEYLEWAKPFTSKVKQMRLHREDFEILKVIGRGAFGEVAVVKLKNADKVFAMKILNKWEMLKRAETACFREERDVLVNGDNKWITTLHYAFQDDNNLYLVMDYYVGGDLLTLLSKFEDRLPEDMARFYLAEMVIAIDSVHQLHYVHRDIKPDNILMDMNGHIRLADFGSCLKLMEDGTVQSSVAVGTPDYISPEILQAMEDGKGRYGPECDWWSLGVCMYEMLYGETPFYAESLVETYGKIMNHKERFQFPAQVTDVSENAKDLIRRLICSREHRLGQNGIEDFKKHPFFSGIDWDNIRNCEAPYIPEVSSPTDTSNFDVDDDCLKNSETMPPPTHTAFSGHHLPFVGFTYTSSCVLSDRSCLRVTAGPTSLDLDVNVQRTLDNNLATEAYERRIKRLEQEKLELSRKLQESTQTVQALQYSTVDGPLTASKDLEIKNLKEEIEKLRKQVTESSHLEQQLEEANAVRQELDDAFRQIKAYEKQIKTLQQEREDLNKELVQASERLKNQSKELKDAHCQRKLAMQEFMEINERLTELHTQKQKLARHVRDKEEEVDLVMQKVESLRQELRRTERAKKELEVHTEALAAEASKDRKLREQSEHYSKQLENELEGLKQKQISYSPGVCSIEHQQEITKLKTDLEKKSIFYEEELSKREGIHANEIKNLKKELHDSEGQQLALNKEIMILKDKLEKTRRESQSEREEFESEFKQQYEREKVLLTEENKKLTSELDKLTTLYENLSIHNQQLEEEVKDLADKKESVAHWEAQITEIIQWVSDEKDARGYLQALASKMTEELEALRNSSLGTRATDMPWKMRRFAKLDMSARLELQSALDAEIRAKQAIQEELNKVKASNIITECKLKDSEKKNLELLSEIEQLIKDTEELRSEKGIEHQDSQHSFLAFLNTPTDALDQFERSPSCTPASKGRRTVDSTPLSVHTPTLRKKGCPGSTGFPPKRKTHQFFVKSFTTPTKCHQCTSLMVGLIRQGCSCEVCGFSCHITCVNKAPTTCPVPPEQTKGPLGIDPQKGIGTAYEGHVRIPKPAGVKKGWQRALAIVCDFKLFLYDIAEGKASQPSVVISQVIDMRDEEFSVSSVLASDVIHASRKDIPCIFRVTASQLSASNNKCSILMLADTENEKNKWVGVLSELHKILKKNKFRDRSVYVPKEAYDSTLPLIKTTQAAAIIDHERIALGNEEGLFVVHVTKDEIIRVGDNKKIHQIELIPNDQLVAVISGRNRHVRLFPMSALDGRETDFYKLSETKGCQTVTSGKVRHGALTCLCVAMKRQVLCYELFQSKTRHRKFKEIQVPYNVQWMAIFSEQLCVGFQSGFLRYPLNGEGNPYSMLHSNDHTLSFIAHQPMDAICAVEISSKEYLLCFNSIGIYTDCQGRRSRQQELMWPANPSSCCYNAPYLSVYSENAVDIFDVNSMEWIQTLPLKKVRPLNNEGSLNLLGLETIRLIYFKNKMAEGDELVVPETSDNSRKQMVRNINNKRRYSFRVPEEERMQQRREMLRDPEMRNKLISNPTNFNHIAHMGPGDGIQILKDLPMNPRPQESRTVFSGSVSIPSITKSRPEPGRSMSASSGLSARSSAQNGSALKREFSGGSYSAKRQPMPSPSEGSLSSGGMDQGSDAPARDFDGEDSDSPRHSTASNSSNLSSPPSPASPRKTKSLSLESTDRGSWDP
partner: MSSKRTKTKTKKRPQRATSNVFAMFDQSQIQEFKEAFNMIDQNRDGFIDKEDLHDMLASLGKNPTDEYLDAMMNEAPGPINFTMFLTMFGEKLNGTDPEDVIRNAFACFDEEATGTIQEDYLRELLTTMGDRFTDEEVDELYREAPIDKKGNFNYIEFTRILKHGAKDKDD

Variants of: B1
Details: with ml12a_human MYL12A

Effect of a mutation on the interaction, decreasing interaction:
T403A
T240A
S234A
K106A
